“And” between values parts separate entries of the source, which are not always exact repeats. Equal values may be shown once.
What was measured:
[1] = target: KPf, chimeric protein of the ATPase domain of DnaK and the substrate binding domain of PfHsp70-1 (Escherichia coli | Plasmodium falciparum); assay: SPR
[2] = system: Nc1ncnc2c1ncn2[C@@H]1O[C@H](COP(=O)(O)OP(=O)(O)OP(=O)(O)O)[C@@H](O)[C@H]1O; assay: purified protein, by the assay type; details: pH 7.5
Method: Hsp70 proteins at final concentration of 0.4 μM were each incubated for 5 min in buffer HKMD (10 mM HEPES-KOH pH 7.5, 100 mM KCl, 2 mM MgCl2 and 0.5 mM DTT). The reaction was initiated by the addition of ATP at various concentrations (0–5 mM) and samples were analyzed every 30 min for 4 h.
Standard deviations shown represent three independent assays made using separate protein purification batches.
validated by one way ANOVA test (p< 0.05 *) and (p<0.01**).

Row | Substance | kon [1] | Km [2]
1 | KPf, chimeric protein of the ATPase domain of DnaK and the substrate binding domain of PfHsp70-1 | 154 M⁻¹ s⁻¹ and 132 M⁻¹ s⁻¹ and 142 M⁻¹ s⁻¹ | 
2 | PfHsp70-1 (Plasmodium falciparum 3D7) |  | 370.8 µM

From PMC7356358
